In patent US20160222130A1 (Astellas, published 2016):

Legend:
Human Tie2 (1-452)A6-Fc = biological target: T1, Human Tie2 (1-452)A6-Fc (human, UniProt Q02763 23-452); assay: ELISA; Tie2-Fc coated at 1 ug/mL; signal at 100 ng/mL antibody vs convergence value on the parent
T1 construct: range 1-452
Description: (§1) The next day, the immobilized solution was removed, and the plate was washed with a TBS-T solution, and incubated for 60 minutes by the addition of 50 μL of a Blocker™ Casein in TBS (Thermo Fisher Scientific Inc., 37532) to perform blocking. The resultant was washed with a TBS-T solution, and TIE-1-Igγ1-LALA, diluted with 0.05% Tween 20 (Nacalai Tesque Inc., 28353-85)—containing Blocker™ Casein in TBS from 0.03 ng/mL to 100 ng/mL through eight steps, was added thereto in the amount of 20 μL per well. The resultant was incubated at room temperature for 90 minutes and then washed with a TBS-T solution three times, and 20 μL of a biotin-labeled anti-human kappa light chain antibody, which had been diluted to 0.1 μg/mL with 0.05% Tween 20-containing Blocker™ Casein in TBS, was added thereto. The resultant was incubated at room temperature for 60 minutes and then washed with a TBS-T solution three times, and 20 μL of alkaline phosphatase-labeled streptavidin, which had been diluted to 0.1 μg/mL with 0.05% Tween 20-containing Blocker™ Casein in TBS, was added thereto. The resultant was incubated at room temperature for 60 minutes and then washed with a TBS-T solution three times, and 50 μL of Chemiluminescent Ultra Sensitive AP Microwell and/or Membrane Substrate (450 nm), which had been 5-fold diluted with 1 mM MgCl₂-containing 20 mM TBS (pH 9.8) as a substrate, was added thereto. The resultant was incubated at room temperature under light-shielding for 40 minutes, and then luminescent intensity thereof was measured with an EnVision™ multi-label counter. The EC₅₀ value of TIE-1-Igγ1-LALA with respect to the human Tie2 (1-452)-Fc chimeric protein and 23 mutant proteins thereof were calculated. The relative value of luminescent intensity of 100 ng/mL TIE-1-Igγ1-LALA as maximum concentration point with respect to human Tie2 (1-452)-Fc chimeric protein and 23 mutant proteins thereof when the convergence value of the sigmoid curve of TIE-1-Igγ1-LALA binding to the human Tie2 (1-452)-Fc chimeric protein which was taken as 100% was calculated (Table 8 and Table 9). Further, the EC₅₀ value and the convergence value were calculated by Sigmoid-Emax model non-linear regression analysis.

Human Tie2 (1-452)A5-Fc [1] = biological target: T2, Human Tie2 (1-452)A5-Fc (human, UniProt Q02763 23-452); assay: as above
T2 construct: range 1-452
Description: as §1

Human Tie2 (1-452)A1-Fc = biological target: T3, Human Tie2 (1-452)A1-Fc (human, UniProt Q02763 23-452); assay: as above
T3 construct: range 1-452
Description: as §1

[2] = biological target: T4, human Tie2 (1-452)-Fc chimeric protein (human, UniProt Q02763 23-452); assay: as above
T4 construct: range 1-452; The stated range 1-452 begins at residue 1 of the precursor
Description: as §1

Human Tie2 (1-452)A2-Fc = biological target: T5, Human Tie2 (1-452)A2-Fc (human, UniProt Q02763 23-452); assay: as above
T5 construct: range 1-452
Description: as §1

Human Tie2 (1-452)A4-Fc = biological target: T6, Human Tie2 (1-452)A4-Fc (human, UniProt Q02763 23-452); assay: as above
T6 construct: range 1-452
Description: as §1

Human Tie2 (1-452)A3-Fc = biological target: T7, Human Tie2 (1-452)A3-Fc (human, UniProt Q02763 23-452); assay: as above
T7 construct: range 1-452
Description: as §1

Human Tie2 (1-452)A5-Fc [3] = biological target: T2, Human Tie2 (1-452)A5-Fc; assay: ELISA; Tie2-Fc coated at 1 ug/mL, chemiluminescence
Description: as §1

[4] = biological target: T4, human Tie2 (1-452)-Fc chimeric protein; assay: as above
Description: as §1

[5] = biological target: human Tie2 (on human Tie2-expressing cells) (human, UniProt Q02763 23-1124); assay: cell-based or functional assay
Human Tie2 (1-452)r1-Fc = biological target: T8, Human Tie2 (1-452)r1-Fc (human, UniProt Q02763 23-452); assay: SPR (Biacore T200); Tie2-Fc captured on anti-human IgG (Fc), Fab at 50 nM; mean of 3
T8 construct: range 1-452
Description: (§2) SPR analysis was carried out in order to evaluate the binding activity of the human Tie2 (1-452)-Fc chimera protein and 23 mutant proteins thereof to the fully human 2-16A2-Fab.
(§3) For SPR analysis, Biacore T200 (GE Healthcare) was used. An anti-human IgG (Fc) antibody (Human Antibody Capture Kit, GE Healthcare) was fixed onto a CM5 sensor chip. The human Tie2 (1-452)-Fc chimeric protein and 23 mutant proteins thereof, diluted with HBS-EP (GE Healthcare) at 5 μg/mL, were each allowed for immobilization, and the capture-amount was measured. Thereafter, the fully human 2-16A2-Fab diluted with HBS-EP to 50 nM, the binding amount thereof to the human Tie2 (1-452)-Fc chimeric protein and 23 mutant proteins thereof were measured. Further, by dividing the binding amount with the capture-amount, the binding amount of the antibody in the unit immobilized antigen (hereinafter referred to as a binding ratio) was calculated. The arithmetic mean of three experiments and the relative value of the binding ratio of each mutant proteins when the binding ratio of the human Tie2 (1-452)-Fc chimeric protein was taken as 100% are shown in Table 7.

Human Tie2 (1-452)r6-Fc = biological target: T9, Human Tie2 (1-452)r6-Fc (human, UniProt Q02763 23-452); assay: as above
T9 construct: range 1-452
Description: as §2, §3

[6] = biological target: T4, human Tie2 (1-452)-Fc chimeric protein; assay: as above
Description: as §2, §3

T4 sequence (Q02763 other isoform, or with tags, fused parts or gaps mutant limits assumed, form in doubt): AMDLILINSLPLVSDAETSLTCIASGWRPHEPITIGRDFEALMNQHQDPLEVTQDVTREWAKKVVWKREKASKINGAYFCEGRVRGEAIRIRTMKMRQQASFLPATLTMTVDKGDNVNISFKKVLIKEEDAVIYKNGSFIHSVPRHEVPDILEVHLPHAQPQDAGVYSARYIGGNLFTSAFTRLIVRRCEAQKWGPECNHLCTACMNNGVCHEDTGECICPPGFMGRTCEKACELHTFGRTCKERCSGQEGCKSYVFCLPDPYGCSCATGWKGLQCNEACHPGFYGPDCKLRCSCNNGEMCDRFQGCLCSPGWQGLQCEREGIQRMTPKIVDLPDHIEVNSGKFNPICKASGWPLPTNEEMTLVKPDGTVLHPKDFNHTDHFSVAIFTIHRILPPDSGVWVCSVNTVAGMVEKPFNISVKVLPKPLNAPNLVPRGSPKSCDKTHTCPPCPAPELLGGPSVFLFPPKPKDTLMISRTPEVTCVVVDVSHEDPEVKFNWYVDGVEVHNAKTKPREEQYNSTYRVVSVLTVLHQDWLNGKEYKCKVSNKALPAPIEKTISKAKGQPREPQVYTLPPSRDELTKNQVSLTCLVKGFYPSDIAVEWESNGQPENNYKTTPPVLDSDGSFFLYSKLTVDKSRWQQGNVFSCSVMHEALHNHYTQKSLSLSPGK
T2 sequence (Q02763 other isoform, or with tags, fused parts or gaps limits assumed, form in doubt): as the sequence (Q02763 other isoform, or with tags, fused parts or gaps mutant limits assumed, form in doubt) above, with S142A counted along it
T9 sequence (Q02763 other isoform, or with tags, fused parts or gaps limits assumed, form in doubt): as the sequence (Q02763 other isoform, or with tags, fused parts or gaps mutant limits assumed, form in doubt) above, with D150A counted along it
T8 sequence (Q02763 other isoform, or with tags, fused parts or gaps limits assumed, form in doubt): as the sequence (Q02763 other isoform, or with tags, fused parts or gaps mutant limits assumed, form in doubt) above, with R145A, H146A, E147A counted along it
T5 sequence (Q02763 other isoform, or with tags, fused parts or gaps limits assumed, form in doubt): as the sequence (Q02763 other isoform, or with tags, fused parts or gaps mutant limits assumed, form in doubt) above, with V132A counted along it
T1 sequence (Q02763 other isoform, or with tags, fused parts or gaps limits assumed, form in doubt): as the sequence (Q02763 other isoform, or with tags, fused parts or gaps mutant limits assumed, form in doubt) above, with P144A counted along it
T6 sequence (Q02763 other isoform, or with tags, fused parts or gaps limits assumed, form in doubt): as the sequence (Q02763 other isoform, or with tags, fused parts or gaps mutant limits assumed, form in doubt) above, with F139A counted along it
T7 sequence (Q02763 other isoform, or with tags, fused parts or gaps limits assumed, form in doubt): as the sequence (Q02763 other isoform, or with tags, fused parts or gaps mutant limits assumed, form in doubt) above, with Y134A counted along it
Chain of human Tie2 (on human Tie2-expressing cells) (Q02763 23-1124): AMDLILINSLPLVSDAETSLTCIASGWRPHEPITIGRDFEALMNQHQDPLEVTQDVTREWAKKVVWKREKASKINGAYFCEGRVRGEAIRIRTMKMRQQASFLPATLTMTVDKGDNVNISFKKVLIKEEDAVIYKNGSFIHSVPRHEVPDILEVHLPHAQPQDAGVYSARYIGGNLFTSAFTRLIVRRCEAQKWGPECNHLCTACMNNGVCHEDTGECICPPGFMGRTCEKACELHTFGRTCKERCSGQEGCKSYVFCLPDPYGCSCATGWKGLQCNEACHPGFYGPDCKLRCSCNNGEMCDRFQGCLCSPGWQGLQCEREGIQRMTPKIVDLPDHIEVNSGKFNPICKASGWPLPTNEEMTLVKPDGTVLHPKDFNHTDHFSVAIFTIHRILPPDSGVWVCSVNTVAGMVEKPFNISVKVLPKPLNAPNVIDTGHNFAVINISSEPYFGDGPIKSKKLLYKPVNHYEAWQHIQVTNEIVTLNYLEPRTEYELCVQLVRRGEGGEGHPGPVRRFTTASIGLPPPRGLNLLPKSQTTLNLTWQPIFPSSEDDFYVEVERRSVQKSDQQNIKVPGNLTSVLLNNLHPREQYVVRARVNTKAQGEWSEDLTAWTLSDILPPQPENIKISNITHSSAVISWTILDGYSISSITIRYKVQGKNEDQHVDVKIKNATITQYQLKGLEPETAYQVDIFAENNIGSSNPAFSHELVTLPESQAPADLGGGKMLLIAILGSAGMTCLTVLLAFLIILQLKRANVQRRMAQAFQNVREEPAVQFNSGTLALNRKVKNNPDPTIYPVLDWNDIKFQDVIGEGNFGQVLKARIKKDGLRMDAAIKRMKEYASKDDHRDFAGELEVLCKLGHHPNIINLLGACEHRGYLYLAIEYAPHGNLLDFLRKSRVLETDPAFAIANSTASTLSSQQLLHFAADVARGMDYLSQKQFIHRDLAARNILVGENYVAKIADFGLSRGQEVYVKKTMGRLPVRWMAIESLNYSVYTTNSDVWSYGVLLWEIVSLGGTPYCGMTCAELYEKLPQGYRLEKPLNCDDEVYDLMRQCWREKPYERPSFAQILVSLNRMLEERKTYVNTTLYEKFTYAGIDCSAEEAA
T3 sequence (Q02763 other isoform, or with tags, fused parts or gaps limits assumed, form in doubt): as the sequence (Q02763 other isoform, or with tags, fused parts or gaps mutant limits assumed, form in doubt) above, with E129A counted along it

| Binder | Relative value (%) of luminescent intensity (Human Tie2 (1-452)A6-Fc) [%] | Relative value (%) of luminescent intensity (Human Tie2 (1-452)A5-Fc [1]) [%] | Relative value (%) of luminescent intensity (Human Tie2 (1-452)A1-Fc) [%] | Relative value (%) of luminescent intensity [2] [%] | Relative value (%) of luminescent intensity (Human Tie2 (1-452)A2-Fc) [%] | Relative value (%) of luminescent intensity (Human Tie2 (1-452)A4-Fc) [%] | Relative value (%) of luminescent intensity (Human Tie2 (1-452)A3-Fc) [%] | EC50 (Human Tie2 (1-452)A5-Fc [3]) [ng/mL] | EC50 [4] [ng/mL] | EC50 value of anti-apoptotic activity, human Tie2-expressing BaF3 cell [5] [ng/mL] | Binding ratio (Human Tie2 (1-452)r1-Fc) | Relative value (%) of binding ratio (human Tie2 (1-452)-Fc chimeric protein = 100%) (Human Tie2 (1-452)r1-Fc) [%] | Binding ratio (Human Tie2 (1-452)r6-Fc) | Relative value (%) of binding ratio (human Tie2 (1-452)-Fc chimeric protein = 100%) (Human Tie2 (1-452)r6-Fc) [%] | Binding ratio [6] | Relative value (%) of binding ratio (human Tie2 (1-452)-Fc chimeric protein = 100%) [6] [%] |
| --- | --- | --- | --- | --- | --- | --- | --- | --- | --- | --- | --- | --- | --- | --- | --- | --- |
| TIE-1-Igγ1-LALA (antibody, human IgG1, kappa, L234A L235A, Tandem tetravalent format: two heavy chains (VH-CH1-linker-VH-CH1-CH2-CH3) and four light chains; also called tetravalent anti-human Tie2 antibody with L234A, L235A and P331S) heavy: not shown light: DIQMTQSPSSLSASVGDRVTITCRSSQSLLHSHRYNYLDWYQQKPGKAPKLLIYLGSNRASGVPSRFSGSGSGTDFTLTISSVQPEDFATYYCMQTLQTPLTFGQGTKVEIKRTVAAPSVFIFPPSDEQLKSGTASVVCLLNNFYPREAKVQWKVDNALQSGNSQESVTEQDSKDSTYSLSSTLTLSKADYEKHKVYACEVTHQGLSSPVTKSFNRGEC | 99 | 98 | 90 | 98 | 95 | 100 | 98 | 0.9 | 1 | 3.65 | – | – | – | – | – | – |
| fully human 2-16A2-Fab (Fab, V domains shown, also called Fab of the fully human 2-16A2) VH: EVQLVESGGGLVQPGGSLRLSCAASGFTFDDYAMHWVRQAPGKGLEWVAGISWNSGSIVYADSVKGRFTISRDNSKNTLYLQMNSLRAEDTAVYYCAKDIREQLVEDAFDIWGQGTLVTVSS VL: DIQMTQSPSSLSASVGDRVTITCRSSQSLLHSHRYNYLDWYQQKPGKAPKLLIYLGSNRASGVPSRFSGSGSGTDFTLTISSVQPEDFATYYCMQTLQTPLTFGQGTKVEIKR | – | – | – | – | – | – | – | – | – | – | 0.29 | 102 | 0.29 | 100 | 0.29 | 100 |
